Measured values from article PMC9356269, “A purified energy-converting hydrogenase from Thermoanaerobacter kivui demonstrates coupled H^+-translocation and reduction in vitro” (The Journal of Biological Chemistry, 2022).
One block for each molecule: values may come before it.

Experiments:
[1] = target: T1, Ech2 complex (energy-converting hydrogenase Ech2) (Thermoanaerobacter kivui, UniProt A0A097ATF1+A0A097ATH3+A0A097ATI1); test: Fd2-:H+ oxidoreductase activity, H2 by gas chromatography; format: biochemical; conditions: read-out: 50% inhibition
T1 construct: gene ech2A1; eight-subunit complex from T. kivui membranes (DDM), plasmid-encoded Ech2C with C-terminal 10x His tag, other subunits native; predicted monomer 248 kDa, active bands ~450 and ~520 kDa (dimer); with Energy-converting hydrogenase Ech2 subunit Ech2C; Energy-converting hydrogenase Ech2 subunit Ech2D; Energy-converting hydrogenase Ech2 subunit Ech2E; Energy-converting hydrogenase Ech2 subunit Ech2F; HycB2 (4Fe-4S ferredoxin-type subunit)

[2] = target: Ech2 complex (energy-converting hydrogenase 2) of T. kivui, His-tagged on Ech2C (Thermoanaerobacter kivui); test: native gel or EMSA; purified Ech2 on nondenaturing PAGE with size standards, Coomassie stain and in-gel hydrogenase activity assay; bands of about 230, 450 and 520 kDa, only the 450 and 520 kDa bands active
[3] = target: Ech2 complex (energy-converting hydrogenase 2) of T. kivui, His-tagged on Ech2C (Thermoanaerobacter kivui)

Molecule: C(=NC1CCCCC1)=NC1CCCCC1 [DCCD]
IC50 [1]: 9.9 ± 0.4 µM

stoichiometry N [2]: 2
Molecule: Ech2 complex (energy-converting hydrogenase 2) of T. kivui, His-tagged on Ech2C, A0A097ATI1 1-625; A0A097ATF1 1-380; A0A097ATH3 1-311; A0A097ATJ2 1-141; A0A097ATJ6 1-120; A0A097ATH9 1-364; A0A097ATH4 1-156; A0A097ATH8 1-132

Km for Fd of the H2:Fd oxidoreductase reaction of purified Ech2 (0 to 90 μM Fd) [3]: 17.8 µM
B1: ferredoxin (Fd) isolated from Clostridium pasteurianum (natural protein)
chain: MAYKIADSCVSCGACASECPVNAISQGDSIFVIDADTCIDCGNCANVCPVGAPVQE
